Measurements taken from patent US20260306683 (published 2026).
Read-outs that look alike come from different tables or passages of the source. One block for each binder: values may come before it.

Legend:
Assay in all cases: ELISA
[1] = biological target: T1, misfolded (denatured) human SOD1 (human, UniProt P00441)
[2] = biological target: T1, misfolded (denatured) human SOD1; remark: listed apart in the source
[3] = biological target: T1, misfolded (denatured) human SOD1; remark: listed apart in the source

T1 sequence (P00441 2-154): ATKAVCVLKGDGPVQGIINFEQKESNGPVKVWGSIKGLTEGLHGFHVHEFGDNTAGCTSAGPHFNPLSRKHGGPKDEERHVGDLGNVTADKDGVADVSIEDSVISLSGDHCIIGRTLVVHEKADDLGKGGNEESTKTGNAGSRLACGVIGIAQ

EC50 [1]: 2.4 nM
B1: Degly-natZr-DFO-AP-101 (antibody, V domains shown)
VH: QVQLVQSGAEVKKPGASVTLSCKASGYTFTAYYIHWVRQAREQGLEWMGVINPSTGTTFYAQNFPDRVSVTRDTSTSTVFMELHNLKSEDTAVYYCARAISEHGSGSYSPYYWGQGTLVTVSS
VL: SYELTQPPSVSVSLGQMAAITCSGEALPKKYGYWYQQKPGQVPVLLIYRDVERPSGVPDRFSGSSSGTMVTLTISGVQAEDEADYYCLSADSSGTWVFGGGTKLTVLG
modifications: EndoS2 deglycosylated, DFO conjugated on lysines (0.6:1.0), natZr labelled

EC50 [2]: 0.5 nM | EC50 [1]: 0.3 nM
B2: natZr-DFO-AP-101 (antibody, V domains shown)
VH: B1 VH
VL: B1 VL
modifications: DFO chelator conjugated on lysines (DFO:antibody 1.1:1.0), natZr labelled

EC50 [3]: 0.2 nM
B3: AP-101 (non-modified alpha-miSOD1) (antibody, V domains shown)
VH: B1 VH
VL: B1 VL
